Experimental data as given in patent publication US20030162205, “Novel transcription factor having zinc finger domain” (published 2003).

What was measured:
[1] = target: T1, GST-285F (m285 full length) (Mus musculus, UniProt Q9JHX2 SEQ:1-398); test: EMSA; 20 mM HEPES, 40 mM KCl, 6 mM MgCl2, salmon sperm DNA; competed by unlabeled GC-box; settings: tags: GST N-terminal (pGEX 4T-3); label: 33P
Source text: (§1) Sp1 is known to bind to a GC-box through its three zinc finger domains. The m285 cloned in the present invention has three zinc finger domains that share a very high homology with the Sp family, and therefore the protein was expected to bind to a GC-box. Thus, 285F, 285N, and 285C were expressed as GST fusion proteins in E. coli to examine their binding to a GC-box. GST fusion proteins purified with glutathione Sepharose, and as the GC box a DNA probe having the nucleotide sequence in the Waf-1 promoter region which sequence binds to Sp1 were used. DNA probe was prepared by labeling ds-(5′-TCGAAAGGAGGCGGGACCCGAGCT-3′/SEQ ID NO: 25) containing a GC-box sequence with 33-P. The DNA probe was reacted with GST-285F, GST-285N, and GST-285C described above in EMSA buffer (20 mM HEPES, 40 mM KCl, 6 MM MgCl₂, 1 mM EGTA, 1 mM DTT, 0.1% NP-40, 10% Glycerol, 0.15% BSA, 25 ng/μl sonicated salmon sperm DNA) for 20 minutes. To examine the presence of competitive inhibition, either an unlabeled GC-box DNA probe or unlabeled mutant GC-box DNA probe (ds-(5′-TCGAAAGGAGTTTTGACCCGGAGCT-3′/SEQ ID NO: 26)) was further added to a similar reaction system. Recombinant Sp1 was used as a positive control. The reactants were electrophoresed on 5% acrylamide gel and were exposed to imaging plates. Analyses were performed using BAS2000 imaging analyzer. […]

[2] = target: GST-285N (m285 N-terminal) (Mus musculus, UniProt Q9JHX2 SEQ:1-278); test: EMSA; no complex; lacks zinc fingers; settings: tags: GST N-terminal (pGEX 4T-3); label: 33P
GST-285N (m285 N-terminal), sequence (Q9JHX2 1-278): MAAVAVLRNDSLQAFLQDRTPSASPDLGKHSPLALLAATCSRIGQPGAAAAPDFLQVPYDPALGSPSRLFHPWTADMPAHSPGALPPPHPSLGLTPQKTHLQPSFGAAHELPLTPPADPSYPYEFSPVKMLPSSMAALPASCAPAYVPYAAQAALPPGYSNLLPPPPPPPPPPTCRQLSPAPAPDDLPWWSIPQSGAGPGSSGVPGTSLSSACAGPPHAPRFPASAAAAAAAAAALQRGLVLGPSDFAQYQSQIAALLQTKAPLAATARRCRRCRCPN
Source text: as §1

Sp1 [3] = target: T2, Sp1 (UniProt P08047 P08047:2-785); test: EMSA; positive control; competed by unlabeled GC-box; settings: label: 33P
T2 sequence (P08047 2-785, one chain of several): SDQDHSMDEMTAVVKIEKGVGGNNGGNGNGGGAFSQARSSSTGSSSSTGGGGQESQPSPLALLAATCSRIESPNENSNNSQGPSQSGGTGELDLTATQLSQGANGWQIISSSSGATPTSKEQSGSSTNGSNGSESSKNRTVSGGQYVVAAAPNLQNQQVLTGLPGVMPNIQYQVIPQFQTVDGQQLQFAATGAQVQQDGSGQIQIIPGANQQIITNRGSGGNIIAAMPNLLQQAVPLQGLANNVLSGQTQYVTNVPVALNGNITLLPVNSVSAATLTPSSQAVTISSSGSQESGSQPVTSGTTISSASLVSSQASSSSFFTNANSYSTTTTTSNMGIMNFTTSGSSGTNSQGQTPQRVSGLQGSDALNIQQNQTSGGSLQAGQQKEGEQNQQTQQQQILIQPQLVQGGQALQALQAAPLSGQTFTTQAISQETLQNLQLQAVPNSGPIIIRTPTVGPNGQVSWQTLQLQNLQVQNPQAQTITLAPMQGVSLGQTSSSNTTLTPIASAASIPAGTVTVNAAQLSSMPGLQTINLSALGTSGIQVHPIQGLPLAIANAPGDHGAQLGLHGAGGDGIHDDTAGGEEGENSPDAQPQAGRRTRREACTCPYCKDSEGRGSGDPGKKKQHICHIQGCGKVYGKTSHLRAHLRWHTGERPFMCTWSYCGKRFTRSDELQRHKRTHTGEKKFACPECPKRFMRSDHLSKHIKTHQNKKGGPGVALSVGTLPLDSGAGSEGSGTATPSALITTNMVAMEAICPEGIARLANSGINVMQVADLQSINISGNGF
Source text: as §1

[4] = target: T3, GST-285C (m285 C-terminal, three zinc fingers) (Mus musculus, UniProt Q9JHX2 SEQ:271-398); test: EMSA; same buffer; competed by unlabeled GC-box; settings: tags: GST N-terminal (pGEX 4T-3); label: 33P
T3 sequence (Q9JHX2 271-398): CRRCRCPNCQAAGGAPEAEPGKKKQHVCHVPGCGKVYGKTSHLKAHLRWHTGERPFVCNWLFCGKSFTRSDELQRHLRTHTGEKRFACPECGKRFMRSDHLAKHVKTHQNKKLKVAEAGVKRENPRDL
Source text: as §1

[5] = target: T3, GST-285C (m285 C-terminal, three zinc …); test: competition; unlabeled mutant competitor had no effect on complex with GC-box; settings: tags: GST N-terminal (pGEX 4T-3)
Source text: (§2) Sp1 is known to bind to a GC-box through its three zinc finger domains. The m285 cloned in the present invention has three zinc finger domains that share a very high homology with the Sp family, and therefore the protein was expected to bind to a GC-box. Thus, 285F, 285N, and 285C were expressed as GST fusion proteins in E. coli to examine their binding to a GC-box. GST fusion proteins purified with glutathione Sepharose, and as the GC box a DNA probe having the nucleotide sequence in the Waf-1 promoter region which sequence binds to Sp1 were used. DNA probe was prepared by labeling ds-(5′-TCGAAAGGAGGCGGGACCCGAGCT-3′/SEQ ID NO: 25) containing a GC-box sequence with 33-P. The DNA probe was reacted with GST-285F, GST-285N, and GST-285C described above in EMSA buffer (20 mM HEPES, 40 mM KCl, 6 MM MgCl₂, 1 mM EGTA, 1 mM DTT, 0.1% NP-40, 10% Glycerol, 0.15% BSA, 25 ng/μl sonicated salmon sperm DNA) for 20 minutes. To examine the presence of competitive inhibition, either an unlabeled GC-box DNA probe or unlabeled mutant GC-box DNA probe (ds-(5′-TCGAAAGGAGTTTTGACCCGGAGCT-3′/SEQ ID NO: 26)) was further added to a similar reaction system. Recombinant Sp1 was used as a positive control. The reactants were electrophoresed on 5% acrylamide gel and were exposed to imaging plates. Analyses were performed using BAS2000 imaging analyzer.
(§3) As a result of gel shift assay, bands that were considered to correspond to DNA-protein complex were observed when GST-285F, GST-285C, or recombinant Sp1 were reacted with the 33-P labeled GC-box DNA probe (FIG. 9; lanes 1, 4, and 9). No complex b and could be observed for GST-285N reacted with the GC-box DNA probe (FIG. 9; lane 7). The addition of unlabeled GC-box DNA probe vanished or decreased the complex bands of GST-285F, GST-285C, or recombinant Sp1, and the GC-box DNA probe (FIG. 9; lanes 2, 5, and 10). Further, the addition of unlabeled mutant GC-box DNA probe to a similar reaction system had no effect on the complex bands of GST-285F, GST-285C, or recombinant Sp1, and the GC-box DNA probe (FIG. 9; lanes 3, 6, and 11).

[6] = target: T1, GST-285F (m285 full length); test: as above; settings: tags: GST N-terminal (pGEX 4T-3)
Source text: as §2, §3

Sp1 [7] = target: T2, Sp1; test: as above
Source text: as §2, §3

T1 sequence (Q9JHX2 whole entry, the tested form may be a part): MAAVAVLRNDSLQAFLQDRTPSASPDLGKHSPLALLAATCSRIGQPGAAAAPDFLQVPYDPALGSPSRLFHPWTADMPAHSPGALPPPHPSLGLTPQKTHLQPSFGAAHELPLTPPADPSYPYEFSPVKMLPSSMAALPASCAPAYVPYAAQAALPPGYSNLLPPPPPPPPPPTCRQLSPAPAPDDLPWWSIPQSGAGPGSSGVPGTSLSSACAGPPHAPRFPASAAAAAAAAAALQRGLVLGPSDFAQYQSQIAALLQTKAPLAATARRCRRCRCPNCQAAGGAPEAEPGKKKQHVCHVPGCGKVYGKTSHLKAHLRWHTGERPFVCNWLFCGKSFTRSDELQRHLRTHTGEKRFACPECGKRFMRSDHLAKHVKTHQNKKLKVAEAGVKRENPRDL

B1: Waf-1 promoter GC-box probe (dsDNA)
DNA 1: TCGAAAGGAGGCGGGACCCGAGCT
DNA 2: AGCTCGGGTCCCGCCTCCTTTCGA
binding result [1]: binds
binding result [2]: no binding
binding result (Sp1 [3]): binds
binding result [4]: binds

B2: mutant GC-box (dsDNA)
DNA 1: TCGAAAGGAGTTTTGACCCGGAGCT
DNA 2: AGCTCCGGGTCAAAACTCCTTTCGA
binding result [5]: no binding
binding result [6]: no binding
binding result (Sp1 [7]): no binding
